B1: NP_116010.1 (parent)
chain: HSLRAVSTDPPHHDHHDEFCLMP

What was measured:
[1] = variants of: B1; assay: protein stability index of a GFP-peptide fusion (GPS, HEK-293T) (PSI 1-6); higher = more stable; settings: c terminus: native
[2] = variants of: B1; assay: as above; settings: c terminus: native; remark: listed apart in the source

Row | Variant | protein stability index [1] | protein stability index [2]
1 | L21H | 2.92 | 1.22
2 | L21A | 2.83 | 1.67
3 | L21K | 3.1 | 2.07
4 | T8G | 2.68 | 2.59
5 | T8N | 2.36 | 2.4
6 | T8R | 2.33 | 3.01
7 | T8S | 2.13 | 2.85
8 | T8M | 2.48 | 2.27
9 | T8I | 2.59 | 2.13
10 | T8K | 2.28 | 2.99
11 | T8C | 2.93 | 2.64
12 | T8A | 2.75 | 4.04
13 | T8Y | 2.54 | 2.14
14 | T8V | 2.26 | 2.82
15 | T8L | 2.36 | 2.95
16 | T8W | 1.99 | 2.87
17 | D9E | 2.48 | 1.95
18 | D9C | 2.45 | 3.11
19 | D9R | 2.2 | 
20 | D9W | 2.52 | 1.81

Row | Variant | protein stability index [1] | protein stability index [2]
21 | D9K | 2.44 | 1.84
22 | D9F | 2.44 | 3.37
23 | D9S | 2.44 | 3.56
24 | D9M | 2.23 | 2.04
25 | D9N | 2.38 | 1.93
26 | D9G | 2.42 | 3.24
27 | H15W | 2.14 | 2.11
28 | H15E | 3 | 1.67
29 | H15G | 2.88 | 2.48
30 | H15K | 2.6 | 2.5
31 | H15V | 2.81 | 3.14
32 | H15A | 2.57 | 1.93
33 | H15F | 2.32 | 2.69
34 | H15Q | 2.48 | 2.79
35 | H15S | 2.76 | 1.8
36 | H15D | 3.15 | 2.08
37 | H15C | 2.52 | 4.24
38 | D14A | 2.52 | 2.35
39 | D14R | 2 | 2.48
40 | D14Y | 2.29 | 

Row | Variant | protein stability index [1] | protein stability index [2]
41 | D14E | 2.5 | 
42 | D14M | 2.29 | 3.39
43 | D14K | 2.25 | 2.14
44 | D14C | 2.5 | 1.99
45 | C20A | 2.8 | 2.05
46 | C20Q | 2.59 | 1.89
47 | C20K | 4.78 | 4.4
48 | C20N | 3.24 | 2.21
49 | C20E | 2.5 | 2.34
50 | C20W | 3.48 | 3.13
51 | C20M | 3.14 | 2.16
52 | C20R | 4.76 | 3.55
53 | C20G | 2.09 | 3.08
54 | L3T | 2.22 | 2.75
55 | L3E | 2.28 | 2.11
56 | L3R | 2.82 | 2.21
57 | L3A | 2.35 | 2.02
58 | L3W | 2.23 | 2.47

From the supplement of paper PMC10567573
